For assay [1], the target named is cone-rod homeobox (CRX), V5-tagged (UniProt O43186). Nature of the assay: co-immunoprecipitation, band densitometry normalized to input. As to conditions: COS-1 cells cotransfected; detection mouse anti-Xpress; parent: est. 100; read off a plot.
Assay [2] addresses neural retina leucine zipper (NRL), V5-tagged (UniProt P54845). The description is as above. As to conditions: COS-1 cells cotransfected; IP goat anti-V5; detection mouse anti-Xpress; parent: est. 100; read off a plot.

Chain of neural retina leucine zipper (NRL), V5-tagged (P54845 whole entry): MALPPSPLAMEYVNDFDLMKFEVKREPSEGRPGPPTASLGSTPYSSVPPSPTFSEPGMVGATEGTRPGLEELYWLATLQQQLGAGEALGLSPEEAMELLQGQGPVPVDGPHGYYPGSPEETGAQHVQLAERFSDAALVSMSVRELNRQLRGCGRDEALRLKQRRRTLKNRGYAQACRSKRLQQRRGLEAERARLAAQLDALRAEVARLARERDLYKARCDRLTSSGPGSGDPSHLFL
Chain of cone-rod homeobox (CRX), V5-tagged (O43186 whole entry): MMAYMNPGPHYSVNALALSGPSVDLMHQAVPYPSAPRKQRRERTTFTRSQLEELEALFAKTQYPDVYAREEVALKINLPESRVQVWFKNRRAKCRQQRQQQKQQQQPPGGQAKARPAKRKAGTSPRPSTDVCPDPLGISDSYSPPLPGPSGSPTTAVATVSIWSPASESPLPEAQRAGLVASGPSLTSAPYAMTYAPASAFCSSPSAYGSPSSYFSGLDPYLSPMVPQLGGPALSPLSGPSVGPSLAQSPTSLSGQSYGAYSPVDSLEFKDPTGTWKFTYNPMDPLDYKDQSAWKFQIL
Chain of photoreceptor-specific nuclear receptor NR2E3 (nuclear receptor subfamily 2 group E member 3), wild type, Q9Y5X4-1 p.N65_C67del (Q9Y5X4 other isoform, or with tags, fused parts or gaps p.N65_C67del): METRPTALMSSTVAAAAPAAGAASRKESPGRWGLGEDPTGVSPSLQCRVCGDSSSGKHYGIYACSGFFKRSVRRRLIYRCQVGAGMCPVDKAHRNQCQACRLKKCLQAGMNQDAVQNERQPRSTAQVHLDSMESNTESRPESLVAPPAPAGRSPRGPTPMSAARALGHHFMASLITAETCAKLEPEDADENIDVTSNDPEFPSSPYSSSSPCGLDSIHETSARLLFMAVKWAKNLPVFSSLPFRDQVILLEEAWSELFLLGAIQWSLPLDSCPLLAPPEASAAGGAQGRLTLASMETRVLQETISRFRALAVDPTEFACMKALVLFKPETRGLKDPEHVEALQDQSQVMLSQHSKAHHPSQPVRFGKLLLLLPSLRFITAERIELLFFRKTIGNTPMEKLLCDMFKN
Chain of photoreceptor-specific nuclear receptor NR2E3 (nuclear receptor subfamily 2 group E member 3), wild type, Q9Y5X4-1 p.R309G (Q9Y5X4 whole entry R309G): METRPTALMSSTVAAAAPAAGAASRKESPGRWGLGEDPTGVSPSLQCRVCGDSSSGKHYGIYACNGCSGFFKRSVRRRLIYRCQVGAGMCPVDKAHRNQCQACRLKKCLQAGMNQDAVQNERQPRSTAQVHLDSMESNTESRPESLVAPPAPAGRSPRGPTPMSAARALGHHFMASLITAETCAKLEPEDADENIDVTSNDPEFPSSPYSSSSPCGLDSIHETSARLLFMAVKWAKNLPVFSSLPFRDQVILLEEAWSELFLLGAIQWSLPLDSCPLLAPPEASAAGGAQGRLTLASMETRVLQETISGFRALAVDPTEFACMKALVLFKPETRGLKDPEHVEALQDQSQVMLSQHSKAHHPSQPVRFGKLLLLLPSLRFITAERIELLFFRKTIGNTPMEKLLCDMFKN
Chain of photoreceptor-specific nuclear receptor NR2E3 (nuclear receptor subfamily 2 group E member 3), wild type, Q9Y5X4-1 p.R385P (Q9Y5X4 whole entry R385P): as the sequence (Q9Y5X4 whole entry R309G) above, with G309R, R385P counted along it
Chain of photoreceptor-specific nuclear receptor NR2E3 (nuclear receptor subfamily 2 group E member 3), wild type, Q9Y5X4-1 p.E121K (Q9Y5X4 whole entry E121K): as the sequence (Q9Y5X4 whole entry R309G) above, with E121K, G309R counted along it
Chain of photoreceptor-specific nuclear receptor NR2E3 (nuclear receptor subfamily 2 group E member 3), wild type, Q9Y5X4-1 p.R104Q (Q9Y5X4 whole entry R104Q): as the sequence (Q9Y5X4 whole entry R309G) above, with R104Q, G309R counted along it
Chain of photoreceptor-specific nuclear receptor NR2E3 (nuclear receptor subfamily 2 group E member 3), wild type, Q9Y5X4-1 p.R311Q (Q9Y5X4 whole entry R311Q): as the sequence (Q9Y5X4 whole entry R309G) above, with G309R, R311Q counted along it
Chain of photoreceptor-specific nuclear receptor NR2E3 (nuclear receptor subfamily 2 group E member 3), wild type, Q9Y5X4-1 p.M407K (Q9Y5X4 whole entry M407K): as the sequence (Q9Y5X4 whole entry R309G) above, with G309R, M407K counted along it
Chain of photoreceptor-specific nuclear receptor NR2E3 (nuclear receptor subfamily 2 group E member 3), wild type, Q9Y5X4-1 p.W234S (Q9Y5X4 whole entry W234S): as the sequence (Q9Y5X4 whole entry R309G) above, with W234S, G309R counted along it
Chain of photoreceptor-specific nuclear receptor NR2E3 (nuclear receptor subfamily 2 group E member 3), wild type, Q9Y5X4-1 p.G88V (Q9Y5X4 whole entry G88V): as the sequence (Q9Y5X4 whole entry R309G) above, with G88V, G309R counted along it
Chain of photoreceptor-specific nuclear receptor NR2E3 (nuclear receptor subfamily 2 group E member 3), wild type, Q9Y5X4-1 p.R76W (Q9Y5X4 whole entry R76W): as the sequence (Q9Y5X4 whole entry R309G) above, with R76W, G309R counted along it

On to “photoreceptor-specific nuclear receptor NR2E3 (nuclear receptor subfamily 2 group E member 3), wild type, Q9Y5X4-1 p.R104Q”, for which the percent of parent was 42% in assay [1] and 100% in assay [2].
The matching figures for “photoreceptor-specific nuclear receptor NR2E3 (nuclear receptor subfamily 2 group E member 3), wild type, Q9Y5X4-1 p.R76W”: 88% and 98%.
Take “photoreceptor-specific nuclear receptor NR2E3 (nuclear receptor subfamily 2 group E member 3), wild type, Q9Y5X4-1 p.G88V”: the percent of parent in assay [1] came to 99%; in assay [2] it was 110%.
The matching figures for “photoreceptor-specific nuclear receptor NR2E3 (nuclear receptor subfamily 2 group E member 3), wild type, Q9Y5X4-1 p.G56R”: 48% and 110%.
Taken in the same sequence, the figures for “photoreceptor-specific nuclear receptor NR2E3 (nuclear receptor subfamily 2 group E member 3), wild type, Q9Y5X4-1 p.N65_C67del” were 84% and 100%.
As to “photoreceptor-specific nuclear receptor NR2E3 (nuclear receptor subfamily 2 group E member 3), wild type, Q9Y5X4-1 p.R309G”, the percent of parent was 55% in assay [1] and 37% in assay [2].
Taken in the same sequence, the figures for “photoreceptor-specific nuclear receptor NR2E3 (nuclear receptor subfamily 2 group E member 3), wild type, Q9Y5X4-1 p.R311Q” were 44% and 74%.
In the case of “photoreceptor-specific nuclear receptor NR2E3 (nuclear receptor subfamily 2 group E member 3), wild type, Q9Y5X4-1 p.L336P”, the results for the percent of parent in assay [1] and in assay [2] were 32% and 10%, respectively.
The matching figures for “photoreceptor-specific nuclear receptor NR2E3 (nuclear receptor subfamily 2 group E member 3), wild type, Q9Y5X4-1 p.W234S”: 95% and 58%.
Taken in the same sequence, the figures for “photoreceptor-specific nuclear receptor NR2E3 (nuclear receptor subfamily 2 group E member 3), wild type, Q9Y5X4-1 p.R76Q” were 95% and 110%.
For the substance “photoreceptor-specific nuclear receptor NR2E3 (nuclear receptor subfamily 2 group E member 3), wild type, Q9Y5X4-1 p.V232I”, the percent of parent in assay [1] and in assay [2] was 87% throughout.
Take “photoreceptor-specific nuclear receptor NR2E3 (nuclear receptor subfamily 2 group E member 3), wild type, Q9Y5X4-1 p.R334G”: the percent of parent was determined as 81% in assay [1] and 69% in assay [2].
Consider “photoreceptor-specific nuclear receptor NR2E3 (nuclear receptor subfamily 2 group E member 3), wild type, Q9Y5X4-1 p.L353V”, for which the percent of parent turned out to be 30% in assay [1] and 10% in assay [2].
Take “photoreceptor-specific nuclear receptor NR2E3 (nuclear receptor subfamily 2 group E member 3), wild type, Q9Y5X4-1 p.R97H”: the percent of parent in assay [1] was determined as 43%; in assay [2], 110%.
The matching figures for “photoreceptor-specific nuclear receptor NR2E3 (nuclear receptor subfamily 2 group E member 3), wild type, Q9Y5X4-1 p.R385P”: 60% and 37%.
On to “photoreceptor-specific nuclear receptor NR2E3 (nuclear receptor subfamily 2 group E member 3), wild type, Q9Y5X4-1 p.E121K”, for which the percent of parent in assay [1] turned out to be 87%; in assay [2], 120%.
Taken in the same sequence, the figures for “photoreceptor-specific nuclear receptor NR2E3 (nuclear receptor subfamily 2 group E member 3), wild type, Q9Y5X4-1 p.A256E” were 55% and 62%.
Turning to “photoreceptor-specific nuclear receptor NR2E3 (nuclear receptor subfamily 2 group E member 3), wild type, Q9Y5X4-1 p.M407K”, the percent of parent in assay [1] came out at 76%; in assay [2], 61%.
“photoreceptor-specific nuclear receptor NR2E3 (nuclear receptor subfamily 2 group E member 3), wild type, Q9Y5X4-1 p.V302I”: the figures for the percent of parent in assay [1] and in assay [2] were 86% and 56%, respectively.
The matching figures for “photoreceptor-specific nuclear receptor NR2E3 (nuclear receptor subfamily 2 group E member 3), wild type, Q9Y5X4-1 p.L263P”: 24% and 16%.

The values above are taken from PMC2773741.
